Article PMC2919855 (Biochemistry, 2010)
pKd: −log10 of the molar value. Non-standard residues stand in square brackets, D forms with d. Residues, ends and D or L forms follow the SMILES beside them. No end group written: not given here. *: point of attachment. Proxyl = 3-carboxy-2,2,5,5-tetramethylpyrrolidinyloxy spin label; TOAC = CC1(C)CC(N)(C(=O)O)CC(C)(C)N1[O]; X1 = CC1(C)CC(C(=O)*)C(C)(C)N1[O]; Aib = CC(C)(N)C(=O)O

Columns and labels:
[1] = biological target: T1, rhodopsin in rod outer segments (ROS) (Bos taurus, UniProt P02699); assay: Meta II; format: biochemical; settings: result in words
T1 sequence (P02699 whole entry): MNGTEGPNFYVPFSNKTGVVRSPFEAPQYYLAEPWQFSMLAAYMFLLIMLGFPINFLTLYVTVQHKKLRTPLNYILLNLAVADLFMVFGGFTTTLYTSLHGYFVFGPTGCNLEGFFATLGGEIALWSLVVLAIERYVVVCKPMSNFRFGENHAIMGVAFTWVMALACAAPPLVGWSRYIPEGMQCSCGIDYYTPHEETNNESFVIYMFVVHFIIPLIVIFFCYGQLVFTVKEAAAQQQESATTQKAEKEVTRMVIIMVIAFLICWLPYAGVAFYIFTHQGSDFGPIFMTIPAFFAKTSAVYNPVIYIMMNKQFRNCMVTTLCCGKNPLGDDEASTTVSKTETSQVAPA

[2] = biological target: photoactivated rhodopsin (R*) in ROS membranes (Bos taurus, UniProt P02699); assay: Direct binding by EPR: spectral integration of bound and free peptide components
Chain of photoactivated rhodopsin (R*) in ROS membranes (P02699 whole entry): as above

[3] = biological target: rhodopsin in rod outer segment (ROS) membranes (UniProt P02699); assay: EPR spectroscopy
Chain of rhodopsin in rod outer segment (ROS) membranes (P02699 whole entry): as above

[4] = biological target: T1, rhodopsin in rod outer segments (ROS); settings: cited from earlier work
[5] = biological target: rhodopsin in rod outer segment (ROS) membranes (UniProt P02699); assay: Meta II stabilization assay
[6] = biological target: rhodopsin in rod outer segment (ROS) membranes (UniProt P02699); assay: time-resolved EPR after a laser flash

pKd [3] | Compound | ability to stabilize the MII state of rhodopsin [1] | other results
 | IKE-TOAC-LKDCGLF [TOAC^343-Gtα(340–350)] | retained the ability to stabilize the MII state | 
 | Proxyl-Gtα(340–350): Gtα(340–350) with Proxyl spin label at the amino terminus (Proxyl-IKENLKDCGLF) | retained the ability to stabilize the MII state | 
 | CC(C)C[C@H](NC(=O)[C@H](CC(=O)O)NC(=O)[C@H](CCC(=O)O)NC(=O)[C@H](CC(C)C)NC(=O)[C@@H](NC(=O)C1CC(C)(C)N([O])C1(C)C)C(C)C)C(=O)N[C@@H](CCCCN)C(=O)N[C@@H](CO)C(=O)N[C@@H](CS)C(=O)NC1(C(=O)N[C@@H](CC(C)C)C(=O)N[C@@H](Cc2ccccc2)C(=O)O)CC(C)(C)N([O])C(C)(C)C1 (stereo partly drawn) [Proxyl/TOAC^348-Gtα(340–350)] (X1-VLEDLKSC[TOAC]LF-OH) | retained the ability to stabilize the MII state | pKd [2]: 4.19
5.40 | Proxyl-Gtα(340–350) high-affinity peptide |  | 
 | [Aib]K[Aib][Aib]LKDCGLG |  | activity in stabilization of the MII state of rhodopsin [4]: full activity
4.90 | TOAC^343-Gtα(340–350) high-affinity peptide |  | pKd [5]: 5.00; lifetime of binding after the flash (single exponential) [6]: 5.8 ms
